Source: the Human Domainome abundance scans (Beltran et al. 2025)
± gives the uncertainty stated by the source.

B1: GA-binding protein alpha chain, residues 172 to 250; numbered along this chain, Q06546 (parent)
chain: GYRKEQERLGIPYDPIQWSTDQVLHWVVWVMKEFSMTDIDLTTLNISGRELCSLNQEDFFQRVPRGEILWSHLELLRKY

Variants of: B1
Test: abundance fitness (aPCA) (normalised: wild type 0, dead -1); higher = more abundant; growth selection in yeast, the domain comes from the species named
Details: Homo sapiens

Variant	abundance fitness
GYRKEQERLGKPYDPIQWSTDQVLHWVVWVMKEFSMTDIDLTTLNISGRELCSLNQEDFFQRVPRGEILWSHLELLRKY [I11K]	-1.21 ± 0.44
GYRKEQERLGDPYDPIQWSTDQVLHWVVWVMKEFSMTDIDLTTLNISGRELCSLNQEDFFQRVPRGEILWSHLELLRKY [I11D]	-0.921 ± 0.34
GYRKEQERLGAPYDPIQWSTDQVLHWVVWVMKEFSMTDIDLTTLNISGRELCSLNQEDFFQRVPRGEILWSHLELLRKY [I11A]	-0.651 ± 0.058
GYRKEQERLGHPYDPIQWSTDQVLHWVVWVMKEFSMTDIDLTTLNISGRELCSLNQEDFFQRVPRGEILWSHLELLRKY [I11H]	-0.644 ± 0.25
GYRKEQERLGGPYDPIQWSTDQVLHWVVWVMKEFSMTDIDLTTLNISGRELCSLNQEDFFQRVPRGEILWSHLELLRKY [I11G]	-0.752 ± 0.046
GYRKEQERLGQPYDPIQWSTDQVLHWVVWVMKEFSMTDIDLTTLNISGRELCSLNQEDFFQRVPRGEILWSHLELLRKY [I11Q]	-1.01 ± 0.33
GYRKEQERLGRPYDPIQWSTDQVLHWVVWVMKEFSMTDIDLTTLNISGRELCSLNQEDFFQRVPRGEILWSHLELLRKY [I11R]	-0.808 ± 0.062
GYRKEQERLGPPYDPIQWSTDQVLHWVVWVMKEFSMTDIDLTTLNISGRELCSLNQEDFFQRVPRGEILWSHLELLRKY [I11P]	-0.928 ± 0.13
GYRKEQERLGCPYDPIQWSTDQVLHWVVWVMKEFSMTDIDLTTLNISGRELCSLNQEDFFQRVPRGEILWSHLELLRKY [I11C]	-0.487 ± 0.058
GYRKEQERLGTPYDPIQWSTDQVLHWVVWVMKEFSMTDIDLTTLNISGRELCSLNQEDFFQRVPRGEILWSHLELLRKY [I11T]	-0.75 ± 0.089
GYRKEQERLGYPYDPIQWSTDQVLHWVVWVMKEFSMTDIDLTTLNISGRELCSLNQEDFFQRVPRGEILWSHLELLRKY [I11Y]	-0.238 ± 0.061
GYRKEQERLGSPYDPIQWSTDQVLHWVVWVMKEFSMTDIDLTTLNISGRELCSLNQEDFFQRVPRGEILWSHLELLRKY [I11S]	-0.842 ± 0.075
GYRKEQERLGLPYDPIQWSTDQVLHWVVWVMKEFSMTDIDLTTLNISGRELCSLNQEDFFQRVPRGEILWSHLELLRKY [I11L]	-0.191 ± 0.035
GYRKEQERLGFPYDPIQWSTDQVLHWVVWVMKEFSMTDIDLTTLNISGRELCSLNQEDFFQRVPRGEILWSHLELLRKY [I11F]	-0.263 ± 0.071
GYRKEQERLGEPYDPIQWSTDQVLHWVVWVMKEFSMTDIDLTTLNISGRELCSLNQEDFFQRVPRGEILWSHLELLRKY [I11E]	-0.924 ± 0.13
GYRKEQERLGVPYDPIQWSTDQVLHWVVWVMKEFSMTDIDLTTLNISGRELCSLNQEDFFQRVPRGEILWSHLELLRKY [I11V]	-0.342 ± 0.031
GYRKEQERLGMPYDPIQWSTDQVLHWVVWVMKEFSMTDIDLTTLNISGRELCSLNQEDFFQRVPRGEILWSHLELLRKY [I11M]	-0.312 ± 0.045
GYRKEQERLGNPYDPIQWSTDQVLHWVVWVMKEFSMTDIDLTTLNISGRELCSLNQEDFFQRVPRGEILWSHLELLRKY [I11N]	-0.818 ± 0.22
GYRKEQERLTIPYDPIQWSTDQVLHWVVWVMKEFSMTDIDLTTLNISGRELCSLNQEDFFQRVPRGEILWSHLELLRKY [G10T]	-0.411 ± 0.069
GYRKEQERLWIPYDPIQWSTDQVLHWVVWVMKEFSMTDIDLTTLNISGRELCSLNQEDFFQRVPRGEILWSHLELLRKY [G10W]	-0.464 ± 0.045
GYRKEQERLVIPYDPIQWSTDQVLHWVVWVMKEFSMTDIDLTTLNISGRELCSLNQEDFFQRVPRGEILWSHLELLRKY [G10V]	-0.383 ± 0.037
GYRKEQERLGIPIDPIQWSTDQVLHWVVWVMKEFSMTDIDLTTLNISGRELCSLNQEDFFQRVPRGEILWSHLELLRKY [Y13I]	-0.022 ± 0.074
GYRKEQERLGIPLDPIQWSTDQVLHWVVWVMKEFSMTDIDLTTLNISGRELCSLNQEDFFQRVPRGEILWSHLELLRKY [Y13L]	-0.014 ± 0.036

Variant	abundance fitness
GYRKEQERLGIPADPIQWSTDQVLHWVVWVMKEFSMTDIDLTTLNISGRELCSLNQEDFFQRVPRGEILWSHLELLRKY [Y13A]	-0.085 ± 0.039
GYRKEQERLGIPSDPIQWSTDQVLHWVVWVMKEFSMTDIDLTTLNISGRELCSLNQEDFFQRVPRGEILWSHLELLRKY [Y13S]	-0.029 ± 0.039
GYRKEQERLGIPNDPIQWSTDQVLHWVVWVMKEFSMTDIDLTTLNISGRELCSLNQEDFFQRVPRGEILWSHLELLRKY [Y13N]	0.006 ± 0.11
GYRKEQERLGIPHDPIQWSTDQVLHWVVWVMKEFSMTDIDLTTLNISGRELCSLNQEDFFQRVPRGEILWSHLELLRKY [Y13H]	-0.114 ± 0.088
GYRKEQERLGIPVDPIQWSTDQVLHWVVWVMKEFSMTDIDLTTLNISGRELCSLNQEDFFQRVPRGEILWSHLELLRKY [Y13V]	-0.109 ± 0.032
GYRKEQERLGIPQDPIQWSTDQVLHWVVWVMKEFSMTDIDLTTLNISGRELCSLNQEDFFQRVPRGEILWSHLELLRKY [Y13Q]	-0.048 ± 0.06
GYRKEQERLGIPDDPIQWSTDQVLHWVVWVMKEFSMTDIDLTTLNISGRELCSLNQEDFFQRVPRGEILWSHLELLRKY [Y13D]	-0.064 ± 0.052
GYRKEQERLGIPFDPIQWSTDQVLHWVVWVMKEFSMTDIDLTTLNISGRELCSLNQEDFFQRVPRGEILWSHLELLRKY [Y13F]	0.014 ± 0.03
GYRKEQERLGIPEDPIQWSTDQVLHWVVWVMKEFSMTDIDLTTLNISGRELCSLNQEDFFQRVPRGEILWSHLELLRKY [Y13E]	0 ± 0.048
GYRKEQERLGIPCDPIQWSTDQVLHWVVWVMKEFSMTDIDLTTLNISGRELCSLNQEDFFQRVPRGEILWSHLELLRKY [Y13C]	-0.138 ± 0.076
GYRKEQERLGIPPDPIQWSTDQVLHWVVWVMKEFSMTDIDLTTLNISGRELCSLNQEDFFQRVPRGEILWSHLELLRKY [Y13P]	-0.058 ± 0.049
GYRKEQERLGIPGDPIQWSTDQVLHWVVWVMKEFSMTDIDLTTLNISGRELCSLNQEDFFQRVPRGEILWSHLELLRKY [Y13G]	-0.119 ± 0.028
GYRKEQERLGIPTDPIQWSTDQVLHWVVWVMKEFSMTDIDLTTLNISGRELCSLNQEDFFQRVPRGEILWSHLELLRKY [Y13T]	-0.152 ± 0.087
GYRKEQERLGIPKDPIQWSTDQVLHWVVWVMKEFSMTDIDLTTLNISGRELCSLNQEDFFQRVPRGEILWSHLELLRKY [Y13K]	-0.024 ± 0.063
GYRKEQERLGIPMDPIQWSTDQVLHWVVWVMKEFSMTDIDLTTLNISGRELCSLNQEDFFQRVPRGEILWSHLELLRKY [Y13M]	0.012 ± 0.062
GYRKEQERLGIPYKPIQWSTDQVLHWVVWVMKEFSMTDIDLTTLNISGRELCSLNQEDFFQRVPRGEILWSHLELLRKY [D14K]	-0.793 ± 0.23
GYRKEQERLGIPYPPIQWSTDQVLHWVVWVMKEFSMTDIDLTTLNISGRELCSLNQEDFFQRVPRGEILWSHLELLRKY [D14P]	-0.596 ± 0.066
GYRKEQERLGIPYLPIQWSTDQVLHWVVWVMKEFSMTDIDLTTLNISGRELCSLNQEDFFQRVPRGEILWSHLELLRKY [D14L]	-0.766 ± 0.061
GYRKEQERLGIPYGPIQWSTDQVLHWVVWVMKEFSMTDIDLTTLNISGRELCSLNQEDFFQRVPRGEILWSHLELLRKY [D14G]	-0.805 ± 0.049
GYRKEQERLGIPYCPIQWSTDQVLHWVVWVMKEFSMTDIDLTTLNISGRELCSLNQEDFFQRVPRGEILWSHLELLRKY [D14C]	-0.393 ± 0.048
GYRKEQERLGIPYRPIQWSTDQVLHWVVWVMKEFSMTDIDLTTLNISGRELCSLNQEDFFQRVPRGEILWSHLELLRKY [D14R]	-0.954 ± 0.064
GYRKEQERLGIPYHPIQWSTDQVLHWVVWVMKEFSMTDIDLTTLNISGRELCSLNQEDFFQRVPRGEILWSHLELLRKY [D14H]	-0.147 ± 0.078
GYRKEQERLGIPYIPIQWSTDQVLHWVVWVMKEFSMTDIDLTTLNISGRELCSLNQEDFFQRVPRGEILWSHLELLRKY [D14I]	-0.94 ± 0.15

Variant	abundance fitness
GYRKEQERLGIPYEPIQWSTDQVLHWVVWVMKEFSMTDIDLTTLNISGRELCSLNQEDFFQRVPRGEILWSHLELLRKY [D14E]	-0.15 ± 0.049
GYRKEQERLGIPYNPIQWSTDQVLHWVVWVMKEFSMTDIDLTTLNISGRELCSLNQEDFFQRVPRGEILWSHLELLRKY [D14N]	-0.072 ± 0.06
GYRKEQERLGIPYFPIQWSTDQVLHWVVWVMKEFSMTDIDLTTLNISGRELCSLNQEDFFQRVPRGEILWSHLELLRKY [D14F]	-1.01 ± 0.18
GYRKEQERLGIPYAPIQWSTDQVLHWVVWVMKEFSMTDIDLTTLNISGRELCSLNQEDFFQRVPRGEILWSHLELLRKY [D14A]	-0.369 ± 0.043
GYRKEQERLGIPYMPIQWSTDQVLHWVVWVMKEFSMTDIDLTTLNISGRELCSLNQEDFFQRVPRGEILWSHLELLRKY [D14M]	-0.784 ± 0.081
GYRKEQERLGIPYQPIQWSTDQVLHWVVWVMKEFSMTDIDLTTLNISGRELCSLNQEDFFQRVPRGEILWSHLELLRKY [D14Q]	-0.344 ± 0.08
GYRKEQERLGIEYDPIQWSTDQVLHWVVWVMKEFSMTDIDLTTLNISGRELCSLNQEDFFQRVPRGEILWSHLELLRKY [P12E]	-0.478 ± 0.069
GYRKEQERLGIAYDPIQWSTDQVLHWVVWVMKEFSMTDIDLTTLNISGRELCSLNQEDFFQRVPRGEILWSHLELLRKY [P12A]	-0.3 ± 0.033
GYRKEQERLGIIYDPIQWSTDQVLHWVVWVMKEFSMTDIDLTTLNISGRELCSLNQEDFFQRVPRGEILWSHLELLRKY [P12I]	-0.912 ± 0.33
GYRKEQERLGIFYDPIQWSTDQVLHWVVWVMKEFSMTDIDLTTLNISGRELCSLNQEDFFQRVPRGEILWSHLELLRKY [P12F]	-0.949 ± 0.22
GYRKEQERLGINYDPIQWSTDQVLHWVVWVMKEFSMTDIDLTTLNISGRELCSLNQEDFFQRVPRGEILWSHLELLRKY [P12N]	-0.542 ± 0.2
GYRKEQERLGITYDPIQWSTDQVLHWVVWVMKEFSMTDIDLTTLNISGRELCSLNQEDFFQRVPRGEILWSHLELLRKY [P12T]	-0.56 ± 0.077
GYRKEQERLGIKYDPIQWSTDQVLHWVVWVMKEFSMTDIDLTTLNISGRELCSLNQEDFFQRVPRGEILWSHLELLRKY [P12K]	-0.762 ± 0.19
GYRKEQERLGIDYDPIQWSTDQVLHWVVWVMKEFSMTDIDLTTLNISGRELCSLNQEDFFQRVPRGEILWSHLELLRKY [P12D]	-0.34 ± 0.1
GYRKEQERLGIRYDPIQWSTDQVLHWVVWVMKEFSMTDIDLTTLNISGRELCSLNQEDFFQRVPRGEILWSHLELLRKY [P12R]	-0.969 ± 0.078
GYRKEQERLGIVYDPIQWSTDQVLHWVVWVMKEFSMTDIDLTTLNISGRELCSLNQEDFFQRVPRGEILWSHLELLRKY [P12V]	-0.724 ± 0.035
GYRKEQERLGIWYDPIQWSTDQVLHWVVWVMKEFSMTDIDLTTLNISGRELCSLNQEDFFQRVPRGEILWSHLELLRKY [P12W]	-0.98 ± 0.14
GYRKEQERLGILYDPIQWSTDQVLHWVVWVMKEFSMTDIDLTTLNISGRELCSLNQEDFFQRVPRGEILWSHLELLRKY [P12L]	-0.955 ± 0.085
GYRKEQERLGIMYDPIQWSTDQVLHWVVWVMKEFSMTDIDLTTLNISGRELCSLNQEDFFQRVPRGEILWSHLELLRKY [P12M]	-0.903 ± 0.12
GYRKEQERLGISYDPIQWSTDQVLHWVVWVMKEFSMTDIDLTTLNISGRELCSLNQEDFFQRVPRGEILWSHLELLRKY [P12S]	-0.229 ± 0.036
GYRKEQERLGIGYDPIQWSTDQVLHWVVWVMKEFSMTDIDLTTLNISGRELCSLNQEDFFQRVPRGEILWSHLELLRKY [P12G]	-0.577 ± 0.041
GYRKEQERLGICYDPIQWSTDQVLHWVVWVMKEFSMTDIDLTTLNISGRELCSLNQEDFFQRVPRGEILWSHLELLRKY [P12C]	-0.494 ± 0.072
GYRKEQERLGIYYDPIQWSTDQVLHWVVWVMKEFSMTDIDLTTLNISGRELCSLNQEDFFQRVPRGEILWSHLELLRKY [P12Y]	-0.707 ± 0.16
